Series [1] in a line: OTA detoxification activity assay (specific activity, fluorescence reduction ex/em 390/450 nm). It is filed as biochemical. The note with it: SEQ ID NO: 1 = 100%. The gist of the method:
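Recombinant enzyme preparation with 200 ng/mL OTA in 100 mM sodium phosphate, at pH 6.0 and pH 7.5, 37° C. Degradation followed as the fall in fluorescence at ex/em 390/450 nm. Specific activity taken from the initial linear slope; one unit degrades 1 μmol OTA per min at a starting OTA of […].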

The nature of series [2]: Enzymatic activity comparison: activity remaining after 65° C. for 10 min at pH 6.0, relative to SEQ ID NO: 1. It is filed as physicochemical. The procedure: To compare the temperature behavior and thermostability of selected enzymes to one another, enzyme was incubated at 65° C. for 10 min at pH 6.0. The enzymatic activity remaining after incubation was compared to the remaining activity of the enzyme of SEQ ID NO: 1 after incubation, the latter being set to 100%, see Table 16.

B1: 95 (protein)
chain: MTTRTRILTAFLSLLAANACAADAAPAAPHTVVLRAARMFDGASGKLVDHPQLTIVGNKIVRIAQGDKAEVPAGAEVVDLGDATLLPGFIDAHVHLSGQSSDNWYGDFFDNMMRFPAEQALYGAYYARITLEAGFTSVRDVGSTDWVALGLRNAIDAGKVPGPRMLVSNYAVGSTGGHADQDPIPPHKLPLAGPLQGVCNGPEECRAAVRYQIKYGANVIKFMPSGGVLSLSDPVDAPELSQDEMNAVIGESHAWGRKVAAHAHGDKAAKMAVAAGVDSIEHGSFIEDDTLRAMKAKNVYLVPTISAIAHVEEKIGTFPPVIAEKGRAAAAHLRQTFRHAVQIGVPIALGTDAGLGAHGSNAREFRYMVENGLTPAQALLAGTANAARLLGTFDRVGTLEAGKLADVVAVPGNPIADITVTERPLFVMKDGVVVRRDAVR
modifications: exemplary polypeptide
With B1, in series [1], the “Specific OTA detoxification activities in % compared to the enzyme of SEQ ID NO: 1, pH 6.0” value turned out to be 108% and the “Specific OTA detoxification activities in % compared to the enzyme of SEQ ID NO: 1, pH 7.5” value is on record as 178%. In addition, the “Enzymatic activity remaining after incubation, compared to SEQ ID NO: 1 (set to 100%)” value in series [2] is on record as 38%.

B2: 96 (protein)
chain: MTTRTRILTAFLSLLAANACAADAAPAAPHTVVLRAARMFDGASGKLVDHPQLTIVGNKIVRIAQGDKAEVPAGAEVVDLGDATLLPGFIDAHVHLSGQSSDNWYGDFFDNMMRFPAEQALYGAYYARITLEAGFTSVRDVGSTDWVALGLRNAIDAGKVPGPRMLVSNYAVGSTGGHADQDPIPPHKLPLAGPLQGVCNGPEECRAAVRYQIKYGANVIKFMPSGGVLSLSDPVDAPELSQDEMNAVIGESHAWGRKVAAHAHGDKAAKMAVAAGVDSIEHGSFIEDDTLRAMKAKNVYLVPTISAIAHVEEKIGTFPPVIAEKGRAAAAHLRQTFRHAVQIGVPIALGTDAGIGAHGSNAREFRYMVENGLTPAQALLAGTANAARLLGTFDRVGTLEAGKLADVVAVPGNPIADITVTERPLFVMKDGVVVRRDAVR
modifications: exemplary polypeptide
Turning to B2, in series [1], the “Specific OTA detoxification activities in % compared to the enzyme of SEQ ID NO: 1, pH 6.0” value was 42% and the “Specific OTA detoxification activities in % compared to the enzyme of SEQ ID NO: 1, pH 7.5” value came out at 33%. Also, in series [2], the “Enzymatic activity remaining after incubation, compared to SEQ ID NO: 1 (set to 100%)” value was 39%.

B3: 106 (protein)
chain: MTTRTRILTAFLSLLAANACAADAAPAAPHTVVLRAARMFDGASGKLVDHPQLTIVGNKIVRIAQGDKAEVPAGAEVVDLGDATLLPGFIDAHVHLSGQSSDNWYGDFFDNMMRFPAEQALYGAYYARITLEAGFTSVRDVGSTDWVALGLRNAIDAGKVPGPRMLVSNYAVGSTGGHADQDPIPPNKLPLAGPLQGVCNGPEECRAAVRYQIKYGANVIKFMPSGGVLSLSDPVDAPELSQDEMNAVIGESHAWGRKVAAHAHGDKAAKMAVAAGVDSIEHGSFIEDDTLRAMKAKNVYLVPTISAIAHVEEKIGTFPPVIAEKGRAAAAHLRQTFRHAVQIGVPIALGTDAGVGAHGSNAREFRYMVENGLTPAQALLAGTANAARLLGTFDRVGTLEAGKLADVVAVPGNPIADITVTERPLFVMKDGVVVRRDAVR
modifications: exemplary polypeptide
Take B3: in series [1], the “Specific OTA detoxification activities in % compared to the enzyme of SEQ ID NO: 1, pH 6.0” value is listed as 88% and the “Specific OTA detoxification activities in % compared to the enzyme of SEQ ID NO: 1, pH 7.5” value was 126%. Besides, the “Enzymatic activity remaining after incubation, compared to SEQ ID NO: 1 (set to 100%)” value in series [2] turned out to be 27%.

B4: 105 (protein)
chain: MTTRTRILTAFLSLLAANACAADAAPAAPHTVVLRAARMFDGASGKLVDHPQLTIVGNKIVRIAQGDKAEVPAGAEVVDLGDATLLPGFIDAHVHLSGQSSDNWYGDFFDNMMRFPAEQALYGAYYARITLEAGFTSVRDVGSTDWVALGLRNAIDAGKVPGPRMLVSNYAVGSTGGHADQDPIPPQKLPLAGPLQGVCNGPEECRAAVRYQIKYGANVIKFMPSGGVLSLSDPVDAPELSQDEMNAVIGESHAWGRKVAAHAHGDKAAKMAVAAGVDSIEHGSFIEDDTLRAMKAKNVYLVPTISAIAHVEEKIGTFPPVIAEKGRAAAAHLRQTFRHAVQIGVPIALGTDAGVGAHGSNAREFRYMVENGLTPAQALLAGTANAARLLGTFDRVGTLEAGKLADVVAVPGNPIADITVTERPLFVMKDGVVVRRDAVR
modifications: exemplary polypeptide
Regarding B4, in series [1], the “Specific OTA detoxification activities in % compared to the enzyme of SEQ ID NO: 1, pH 6.0” value is on record as 81% and the “Specific OTA detoxification activities in % compared to the enzyme of SEQ ID NO: 1, pH 7.5” value worked out at 120%. The “Enzymatic activity remaining after incubation, compared to SEQ ID NO: 1 (set to 100%)” value in series [2] is listed as 15%.

B5: 108 (protein)
chain: MTTRTRILTAFLSLLAANACAADAAPAAPHTVVLRAARMFDGASGKLVDHPQLTIVGNKIVRIAQGDKAEVPAGAEVVDLGDATLLPGFIDAHVHLSGQSSDNWYGDFFDNMMRFPAEQALYGAYYARITLEAGFTSVRDVGSTDWVALGLRNAIDAGKVPGPRMLVSNYAVGSTGGHADQDPIPPHKLPLAGPLQGVCNGPEECRAAVRYQIKYGANVIKFMPSGGVLSLSDPVDAPELSQDEMNAVIGESHAWGRKVAAHAHGDKAAKMAVAAGVDSIEHGSFIEDDTLRAMKAKNVYLVPTISAIANVEEKIGTFPPVIAEKGRAAAAHLRQTFRHAVQIGVPIALGTDAGVGAHGSNAREFRYMVENGLTPAQALLAGTANAARLLGTFDRVGTLEAGKLADVVAVPGNPIADITVTERPLFVMKDGVVVRRDAVR
modifications: exemplary polypeptide
Turning to B5, in series [1], the “Specific OTA detoxification activities in % compared to the enzyme of SEQ ID NO: 1, pH 6.0” value is given as 61% and the “Specific OTA detoxification activities in % compared to the enzyme of SEQ ID NO: 1, pH 7.5” value came out at 96%. In series [2], the “Enzymatic activity remaining after incubation, compared to SEQ ID NO: 1 (set to 100%)” value worked out at 27%.

B6: 107 (protein)
chain: MTTRTRILTAFLSLLAANACAADAAPAAPHTVVLRAARMFDGASGKLVDHPQLTIVGNKIVRIAQGDKAEVPAGAEVVDLGDATLLPGFIDAHVHLSGQSSDNWYGDFFDNMMRFPAEQALYGAYYARITLEAGFTSVRDVGSTDWVALGLRNAIDAGKVPGPRMLVSNYAVGSTGGHADQDPIPPHKLPLAGPLQGVCNGPEECRAAVRYQIKYGANVIKFMPSGGVLSLSDPVDAPELSQDEMNAVIGESHAWGRKVAAHAHGDKAAKMAVAAGVDSIEHGSFIEDDTLRAMKAKNVYLVPTISAIAQVEEKIGTFPPVIAEKGRAAAAHLRQTFRHAVQIGVPIALGTDAGVGAHGSNAREFRYMVENGLTPAQALLAGTANAARLLGTFDRVGTLEAGKLADVVAVPGNPIADITVTERPLFVMKDGVVVRRDAVR
modifications: exemplary polypeptide
Regarding B6, in series [1], the “Specific OTA detoxification activities in % compared to the enzyme of SEQ ID NO: 1, pH 6.0” value was determined as 54% and the “Specific OTA detoxification activities in % compared to the enzyme of SEQ ID NO: 1, pH 7.5” value amounted to 92%. In addition, the “Enzymatic activity remaining after incubation, compared to SEQ ID NO: 1 (set to 100%)” value in series [2] is recorded as 21%.

B7: 103 (protein)
chain: MTTRTRILTAFLSLLAANACAADAAPAAPHTVVLRAARMFDGASGKLVDHPQLTIVGNKIVRIAQGDKAEVPAGAEVVDLGDATLLPGFIDAHVHLSGQSSDNWYGDFFDNMMRFPAEQALYGAYYARITLEAGFTSVRDVGSTDWVALGLRNAIDAGKVPGPRMLVSNYAVGSTGGHADQDPVPPHKLPLAGPLQGVCNGPEECRAAVRYQIKYGANVIKFMPSGGVLSLSDPVDAPELSQDEMNAVIGESHAWGRKVAAHAHGDKAAKMAVAAGVDSIEHGSFIEDDTLRAMKAKNVYLVPTISAIAHVEEKIGTFPPVIAEKGRAAAAHLRQTFRHAVQIGVPIALGTDAGVGAHGSNAREFRYMVENGLTPAQALLAGTANAARLLGTFDRVGTLEAGKLADVVAVPGNPIADITVTERPLFVMKDGVVVRRDAVR
modifications: exemplary polypeptide
Consider B7, for which, in series [1], the “Specific OTA detoxification activities in % compared to the enzyme of SEQ ID NO: 1, pH 6.0” value is on record as 101% and the “Specific OTA detoxification activities in % compared to the enzyme of SEQ ID NO: 1, pH 7.5” value is on record as 124%. The “Enzymatic activity remaining after incubation, compared to SEQ ID NO: 1 (set to 100%)” value in series [2] was found to be 36%.
